Source: article PMC5940811, “The lactose operon from Lactobacillus casei is involved in the transport and metabolism of the human milk oligosaccharide core-2 N-acetyllactosamine” (Scientific Reports, 2018)

Substrate: O=[N+]([O-])c1ccccc1O[C@@H]1O[C@H](COP(=O)(O)O)[C@H](O)[C@H](O)[C@H]1O
Assay: purified protein
Type: biochemical, Lacticaseibacillus casei
Conditions: activity assay in 100 mM Tris-HCl pH 7.0, 37 °C, kinetics as in cited earlier work

B1: phospho-β-galactosidase LacG; 6x(His)LacG (Lacticaseibacillus casei BL23) (protein)
chain: MSKQLPQDFVMGGATAAYQVEGATKEDGKGRVLWDDFLDKQGRFKPDPAADFYHRYDEDLALAEKYGHQVIRVSIAWSRIFPDGAGEVEPRGVAFYHKLFADCAAHHIEPFVTLHHFDTPERLHEAGDWLSQEMLDDFVAYAKFCFEEFSEVKYWITINEPTSMAVQQYTSGTFPPAESGRFDKTFQAEHNQMVAHARIVNLYKSMQLGGQIGIVHALQTVYPYSDSAVDHHAAELQDALENRLYLDGTLAGEYHQETLALVKEILDANHQPMFQSTPQEMKAIDEAAHQLDFVGVNNYFSKWLRAYHGKSETIHNGDGTKGSSVARLQGVGEEKLPDGIETTDWDWSIYPRGMYDILMRIHNDYPLVPVTYVTENGIGLKESLPENATPDTVIEDPKRIDYVKKYLSAMADAIHDGANVKGYFIWSLQDQFSWTNGYSKRYGLFFVDFPTQNRYIKQSAEWFKSVSETHIIPD
notes: full coding region in pQE80 (BamHI/PstI), 6xHis tag (N-terminal by vector), E. coli BE50 host, purified; 55 kDa, calculated tagged mass 55,305 Da
Km: 3000 µM
